From patent publication US20120213794A1 (published 2012) come the findings set out here.

The labels stand for the following.
B1: AX210 Fab (Fab, V domains shown)
VH: QVQLLESGGGLVQPGGSLRLSCKASGYTFSSYSIYWVRQAPGKGLEWIGWIDPGNGGTRYNQKFQSKATISRDNSKNTLYLQMNSLRAEDTAVYYCARARVGYSLDYWGQGTLVTVSS
VL: EIVLTQSPATLSLSPGERATITCRASQYVGSYLNWYQQKPGQAPRLLIYDASNRATGIPARFSGSGSGTDFTLTISSLEPEDFAVYYCQVWDSSPPVVFGGGTKVEIK
B2: AX212 Fab (Fab, V domains shown)
VH: QVQLLESGGGLVQPGGSLRLSCKASGYTFSSYSFSWVRQAPGKGLEWIGYIDPGSGGTKYNQKFQGKATISRDNSKNTLYLQMNSLRAEDTAVYYCARQRVGYSLDYWGQGTLVTVSS
VL: EIVLTQSPATLSLSPGERATITCRASQYVGSYLNWYQQKPGQAPRLLIYDASNRATGIPARFSGSGSGTDFTLTISSLEPEDFAVYYCQVWDSSPPVVFGGGTKVEIK
B3: AX211 Fab (Fab, V domains shown)
VH: QVQLLESGGGLVQPGGSLRLSCKASGYTFSRQGFTWVRQAPGKGLEWIGWIDPGNGGTRYNEKFKGKATISRDNSKNTLYLQMNSLRAEDTAVYYCARYRVGYSLDYWGQGTLVTVSS
VL: EIVLTQSPATLSLSPGERATITCRASQYVGSYLNWYQQKPGQAPRLLIYDASNRATGIPARFSGSGSGTDFTLTISSLEPEDFAVYYCQVWDSSPPVVFGGGTKVEIK
B4: AX114 IgG (antibody, V domains shown)
VH: EVQLLESGGGLVQPGGSLRLSCKASGYTFSSYGMYWVRQAPGKGLEWIGWIDPGSGGTKYNEKFKGKATISRDNSKNTLYLQMNSLRAEDTAVYYCARERYGYYFDYWGQGTLVTVSS
VL: EIVLTQSPATLSLSPGERATITCRASQYVGTYLNWYQQKPGQAPRLLIYDASNRATGIPARFSGSGSGTDFTLTISSLEPEDFAVYYCQVWDSSPPVAFGGGTKVEIK
notes: Purified IgG; also called AX114-IgG2
B5: AX210 IgG (antibody, V domains shown)
VH: QVQLLESGGGLVQPGGSLRLSCKASGYTFSSYSIYWVRQAPGKGLEWIGWIDPGNGGTRYNQKFQSKATISRDNSKNTLYLQMNSLRAEDTAVYYCARARVGYSLDYWGQGTLVTVSS
VL: EIVLTQSPATLSLSPGERATITCRASQYVGSYLNWYQQKPGQAPRLLIYDASNRATGIPARFSGSGSGTDFTLTISSLEPEDFAVYYCQVWDSSPPVVFGGGTKVEIK
notes: Purified IgG
B6: AX211 IgG (antibody, V domains shown)
VH: QVQLLESGGGLVQPGGSLRLSCKASGYTFSRQGFTWVRQAPGKGLEWIGWIDPGNGGTRYNEKFKGKATISRDNSKNTLYLQMNSLRAEDTAVYYCARYRVGYSLDYWGQGTLVTVSS
VL: EIVLTQSPATLSLSPGERATITCRASQYVGSYLNWYQQKPGQAPRLLIYDASNRATGIPARFSGSGSGTDFTLTISSLEPEDFAVYYCQVWDSSPPVVFGGGTKVEIK
notes: Purified IgG
B7: AX212 IgG (antibody, V domains shown)
VH: QVQLLESGGGLVQPGGSLRLSCKASGYTFSSYSFSWVRQAPGKGLEWIGYIDPGSGGTKYNQKFQGKATISRDNSKNTLYLQMNSLRAEDTAVYYCARQRVGYSLDYWGQGTLVTVSS
VL: EIVLTQSPATLSLSPGERATITCRASQYVGSYLNWYQQKPGQAPRLLIYDASNRATGIPARFSGSGSGTDFTLTISSLEPEDFAVYYCQVWDSSPPVVFGGGTKVEIK
notes: Purified IgG
B8: AX137 IgG (antibody, V domains shown)
VH: EVQLLESGGGLVQPGGSLRLSCKASGYTFSSYGMYWVRQAPGKGLEWIGWIDPGSGGTKYNEKFKGKATISRDNSKNTLYLQMNSLRAEDTAVYYCARERYGYYFDYWGQGTLVTVSS
VL: EIVLTQSPATLSLSPGERATITCRASQYIGSYLNWYQQKPGQAPRLLIYDASNRATGIPARFSGSGSGTDFTLTISSLEPEDFAVYYCQAWDSSPPVVFGGGTKVEIK
notes: Purified IgG
B9: AX213 IgG (antibody, V domains shown)
VH: EVQLLESGGGLVQPGGSLRLSCKASGYTFSRYGINWVRQAPGKGLEWIGRIDPGNGGTRYNEKFKGKATISRDNSKNTLYLQMNSLRAEDTAVYYCARANDGYSFDYWGQGTLVTVSS
VL: EIVLTQSPATLSLSPGERATITCRASQYVGSYLNWYQQKPGQAPRLLIYDASNRATGIPARFSGSGSGTDFTLTISSLEPEDFAVYYCQVWDSSPPVVFGGGTKVEIKR
B10: AX210 Fab (Fab, V domains shown)
VH: QVQLLESGGGLVQPGGSLRLSCKASGYTFSSYSIYWVRQAPGKGLEWIGWIDPGNGGTRYNQKFQSKATISRDNSKNTLYLQMNSLRAEDTAVYYCARARVGYSLDYWGQGTLVTVSS
VL: EIVLTQSPATLSLSPGERATITCRASQYVGSYLNWYQQKPGQAPRLLIYDASNRATGIPARFSGSGSGTDFTLTISSLEPEDFAVYYCQVWDSSPPVVFGGGTKVEIK
notes: Tested as purified Fab
B11: AX139 Fab (Fab, V domains shown)
VH: EVQLLESGGGLVQPGGSLRLSCKASGYTFSSYGMYWVRQAPGKGLEWIGWIDPGSGGTKYNEKFKGKATISRDNSKNTLYLQMNSLRAEDTAVYYCARERYGYYFDYWGQGTLVTVSS
VL: EIVLTQSPATLSLSPGERATITCRASQYVGSYLNWYQQKPGQAPRLLIYDAANRATGIPARFSGSGSGTDFTLTISSLEPEDFAVYYCQVWDSSPPVVFGGGTKVEIK
notes: Tested as purified Fab
B12: AX114 Fab (Fab, V domains shown)
VH: EVQLLESGGGLVQPGGSLRLSCKASGYTFSSYGMYWVRQAPGKGLEWIGWIDPGSGGTKYNEKFKGKATISRDNSKNTLYLQMNSLRAEDTAVYYCARERYGYYFDYWGQGTLVTVSS
VL: EIVLTQSPATLSLSPGERATITCRASQYVGTYLNWYQQKPGQAPRLLIYDASNRATGIPARFSGSGSGTDFTLTISSLEPEDFAVYYCQVWDSSPPVAFGGGTKVEIK
notes: Tested as purified Fab from E. coli TG1
B13: AX212 Fab (Fab, V domains shown)
VH: QVQLLESGGGLVQPGGSLRLSCKASGYTFSSYSFSWVRQAPGKGLEWIGYIDPGSGGTKYNQKFQGKATISRDNSKNTLYLQMNSLRAEDTAVYYCARQRVGYSLDYWGQGTLVTVSS
VL: EIVLTQSPATLSLSPGERATITCRASQYVGSYLNWYQQKPGQAPRLLIYDASNRATGIPARFSGSGSGTDFTLTISSLEPEDFAVYYCQVWDSSPPVVFGGGTKVEIK
notes: Tested as purified Fab
B14: AX213 Fab (Fab, V domains shown)
VH: QVQLLESGGGLVQPGGSLRLSCKASGYTFSRYGINWVRQAPGKGLEWIGRIDPGNGGTRYNEKFKGKATISRDNSKNTLYLQMNSLRAEDTAVYYCARANDGYSFDYWGQGTLVTVSS
VL: EIVLTQSPATLSLSPGERATITCRASQYVGSYLNWYQQKPGQAPRLLIYDASNRATGIPARFSGSGSGTDFTLTISSLEPEDFAVYYCQVWDSSPPVVFGGGTKVEIKR
B15: AX211 Fab (Fab, V domains shown)
VH: QVQLLESGGGLVQPGGSLRLSCKASGYTFSRQGFTWVRQAPGKGLEWIGWIDPGNGGTRYNEKFKGKATISRDNSKNTLYLQMNSLRAEDTAVYYCARYRVGYSLDYWGQGTLVTVSS
VL: EIVLTQSPATLSLSPGERATITCRASQYVGSYLNWYQQKPGQAPRLLIYDASNRATGIPARFSGSGSGTDFTLTISSLEPEDFAVYYCQVWDSSPPVVFGGGTKVEIK
notes: Tested as purified Fab
B16: AX137 Fab (Fab, V domains shown)
VH: EVQLLESGGGLVQPGGSLRLSCKASGYTFSSYGMYWVRQAPGKGLEWIGWIDPGSGGTKYNEKFKGKATISRDNSKNTLYLQMNSLRAEDTAVYYCARERYGYYFDYWGQGTLVTVSS
VL: EIVLTQSPATLSLSPGERATITCRASQYIGSYLNWYQQKPGQAPRLLIYDASNRATGIPARFSGSGSGTDFTLTISSLEPEDFAVYYCQAWDSSPPVVFGGGTKVEIK
notes: Tested as purified Fab

The target of one test is human PCSK9 (human, UniProt Q8NBP7 31-692). The test can be described thus: cell-based or functional assay.
Target sequence in this assay (Q8NBP7 31-692 limits assumed): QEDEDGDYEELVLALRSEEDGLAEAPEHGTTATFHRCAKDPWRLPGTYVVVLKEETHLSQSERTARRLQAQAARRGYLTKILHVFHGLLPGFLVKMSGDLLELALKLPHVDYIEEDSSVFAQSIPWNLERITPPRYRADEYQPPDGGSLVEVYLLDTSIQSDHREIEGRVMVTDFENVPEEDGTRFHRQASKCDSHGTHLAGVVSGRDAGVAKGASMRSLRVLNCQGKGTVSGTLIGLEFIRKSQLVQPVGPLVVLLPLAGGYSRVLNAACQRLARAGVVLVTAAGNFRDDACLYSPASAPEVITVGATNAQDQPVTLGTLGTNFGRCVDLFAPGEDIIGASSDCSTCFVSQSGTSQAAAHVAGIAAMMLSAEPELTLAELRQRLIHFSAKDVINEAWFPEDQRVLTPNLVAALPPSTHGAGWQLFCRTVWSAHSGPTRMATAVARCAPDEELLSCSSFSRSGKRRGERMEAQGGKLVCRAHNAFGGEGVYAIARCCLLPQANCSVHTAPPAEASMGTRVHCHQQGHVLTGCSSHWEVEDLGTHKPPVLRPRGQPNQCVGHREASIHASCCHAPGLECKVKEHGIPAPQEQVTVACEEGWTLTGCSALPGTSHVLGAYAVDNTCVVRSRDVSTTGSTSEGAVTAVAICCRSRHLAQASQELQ
As for B1, the “Fab IC50 (nM), inhibition of PCSK9 on LDL uptake” value is 26.8 nM.
On the same count and under the same terms, the value for B2 was 13.8 nM; that for B3 was 12.6 nM.

The target of a further test is T1, human PCSK9 (human, UniProt Q8NBP7 31-692).
T1 construct: Secreted PCSK9 is autocleaved into prodomain and mature chain, and a His-tag is named for the HEK293 constructs; also called hPCSK9; proprotein convertase subtilisin-kexin type 9
The test can be described thus: SPR (Biacore), IgG captured by anti-human IgG, PCSK9 injected at 3.75-60 nM. The method, then:
The affinities of those IgG molecules were also measured by Biacore assay. Briefly, anti-human IgG monoclonal antibody form Human Antibody Capture Kit provided by Biacore was immobilized on CM5 chips at level of 8000 to 10000 RU. The IgG samples at concentration of ˜0.4 μg/ml was injected onto a sensor chip for 2 minutes at a flow rate of 20 μl/min, then PCSK9 proteins at 5 concentrations (3.75 to 60 nM) were injected onto an IgG captured flow cell for binding kinetic analysis. After each round injection, the sensor chip surface was regenerated by 30 second injection of 3M Magnesium Chloride.
T1 sequence (Q8NBP7 31-692 limits assumed): as above
In general, Kd refers to the constant that tells how readily two partners part at equilibrium. A low value points to higher affinity. Broadly, the koff is the first-order rate constant of dissociation. Usually kon stands for a measure of how fast the partners come together. Read a low kon as slow association. The molecule B4 gave a dissociation constant (Kd) of 24 nM, a koff of 0.00361 s⁻¹ and a kon of 151000 M⁻¹ s⁻¹.
The molecule B5 came in with a Kd of 2.64 nM, a koff of 0.000621 s⁻¹ and a kon of 235000 M⁻¹ s⁻¹.
Molecule B6 displayed a Kd of 1.63 nM, a koff of 0.000589 s⁻¹ and a kon of 361000 M⁻¹ s⁻¹.
In the same order, the values of B7 are 2.12 nM, 0.000324 s⁻¹ and 153000 M⁻¹ s⁻¹.
In the same order, the values of B8 are 9.98 nM, 0.00332 s⁻¹ and 333000 M⁻¹ s⁻¹.
The corresponding values for B9 are 2.07 nM, 0.00073 s⁻¹ and 353000 M⁻¹ s⁻¹.

Another test has as its target T2, human PCSK9 (human, UniProt Q8NBP7 31-692).
T2 construct: also called hPCSK9; proprotein convertase subtilisin-kexin type 9
The test can be described thus: SPR (Biacore), Fab captured by anti-Fab IgG, 1:1 fit. The procedure:
Biacore assay was developed. First, goat anti-Fab IgGs were immobilized onto CM5 chip by amine coupling as described above. The anti-Fab IgGs were diluted to 200 μg/ml in pH 5/10 mM Acetate solution, and injected onto the NHS/EDC activated surface to achieve an immobilization level of ˜10,000 RU, followed with surface inactivation by injection of Ethanolamine. Then Fab samples at concentration of 2 μg/ml in HBS-P running buffer were injected for 3 minutes at flow speed of 20 ul/min, followed with K-injection (3 minutes injection for association and 6 minutes for dissociation) of PCSK9 at concentration of 10 to 100 nM. The sensor chip surface was regenerated by 30 second injection of 100 mM phosphoric acid. The binding sensorgrams were fitted with 1:1 Langmuir binding model to determine the binding affinity.
A general note: In SPR one partner is held on a chip, and binding of the other changes the refractive index at the surface.
T2 sequence (Q8NBP7 31-692 limits assumed): as above
B10: the Kd amounted to 1.67 nM, the koff worked out at 0.000287 s⁻¹ and the kon amounted to 172000 M⁻¹ s⁻¹.
The corresponding values for B11 are 13.2 nM, 0.00118 s⁻¹ and 89700 M⁻¹ s⁻¹.
The corresponding values for B12 are 48.5 nM, 0.00348 s⁻¹ and 71700 M⁻¹ s⁻¹.
The corresponding values for B13 are 1.47 nM, 0.000233 s⁻¹ and 159000 M⁻¹ s⁻¹.
Turning to B14, binding was put at a Kd of 1.37 nM, the koff amounted to 0.000329 s⁻¹ and the kon stood at 243000 M⁻¹ s⁻¹.
With B15, the Kd was 1.67 nM, the koff was 0.000329 s⁻¹ and the kon was 197000 M⁻¹ s⁻¹.
The corresponding values for B16 are 19.5 nM, 0.00208 s⁻¹ and 107000 M⁻¹ s⁻¹.
